The results in this text go back to patent publication US20250051444A1 (published 2025).

Broadly, the EC50 is the concentration that produces a half-maximal response. A lower EC50 goes with higher potency in that assay.

Assay in all cases: FACS binding to CHO cells
(A flow cytometer gives signals particle by particle.)

Experiment [1] concerns the target T1, cynomolgus LRRC15 (cynomolgus, UniProt G7NYR2 22-581).
T1 chain: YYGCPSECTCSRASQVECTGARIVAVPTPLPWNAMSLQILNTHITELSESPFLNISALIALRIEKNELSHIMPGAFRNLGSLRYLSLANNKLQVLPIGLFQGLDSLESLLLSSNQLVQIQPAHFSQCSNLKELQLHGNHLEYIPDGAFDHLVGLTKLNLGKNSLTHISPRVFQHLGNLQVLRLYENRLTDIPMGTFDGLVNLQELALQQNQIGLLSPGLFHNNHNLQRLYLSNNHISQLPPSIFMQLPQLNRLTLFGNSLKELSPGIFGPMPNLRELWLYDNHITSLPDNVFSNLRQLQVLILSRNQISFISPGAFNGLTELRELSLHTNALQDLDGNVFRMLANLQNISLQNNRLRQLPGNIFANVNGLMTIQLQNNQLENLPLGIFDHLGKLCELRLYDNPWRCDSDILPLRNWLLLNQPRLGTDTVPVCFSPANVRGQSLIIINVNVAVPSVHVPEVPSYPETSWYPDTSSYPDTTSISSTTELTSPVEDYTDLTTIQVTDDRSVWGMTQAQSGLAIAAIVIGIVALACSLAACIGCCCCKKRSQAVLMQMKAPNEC

For experiment [2], the target named is T2, human LRRC15 (leucine-rich repeat containing protein 15) (human, UniProt Q8TF66 22-581).
T2 chain: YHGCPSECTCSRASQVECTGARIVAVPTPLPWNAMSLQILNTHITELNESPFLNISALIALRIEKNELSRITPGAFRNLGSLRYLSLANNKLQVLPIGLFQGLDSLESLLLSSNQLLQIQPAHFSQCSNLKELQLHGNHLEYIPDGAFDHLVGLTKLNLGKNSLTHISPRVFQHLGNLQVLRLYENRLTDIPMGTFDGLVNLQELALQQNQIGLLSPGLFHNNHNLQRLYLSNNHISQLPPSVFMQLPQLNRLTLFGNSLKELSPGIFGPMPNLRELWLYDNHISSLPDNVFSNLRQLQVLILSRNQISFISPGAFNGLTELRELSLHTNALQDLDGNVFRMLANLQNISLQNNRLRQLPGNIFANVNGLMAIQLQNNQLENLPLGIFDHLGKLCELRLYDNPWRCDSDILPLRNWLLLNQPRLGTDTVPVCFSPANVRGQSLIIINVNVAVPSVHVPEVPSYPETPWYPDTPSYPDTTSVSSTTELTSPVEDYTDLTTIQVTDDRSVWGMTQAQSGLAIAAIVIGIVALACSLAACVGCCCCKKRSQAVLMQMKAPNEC

Experiment [3] deals with T2, human LRRC15 (leucine-rich repeat …).
For experiment [4], the target named is T1, cynomolgus LRRC15.

Where two headings read alike, the source gives them in different places.

B1: 153-L06C (bispecific antibody)
chain 1: not shown
chain 2: EPKSCDKTHTCPPCPAPEFEGGPSVFLFPPKPKDTLMISRTPEVTCVVVDVSHEDPEVKFNWYVDGVEVHNAKTKPREEQYNSTYRVVSVLTVLHQDWLNGKEYKCKVSNKALPASIEKTISKAKGQPREPQVCTLPPSRDELTKNQVSLTCLVEGFYPSDIAVEWESNGQPENNYKTTPPVLDSDGSFFLYSDLTVDKSRWQQGNVFSCSVMHEALHNHYTQESLSLSPGK
B1: the EC50 came out at 1.48 nM with cynomolgus LRRC15 [1] and 1.15 nM in experiment [2].

B2: L15-08 (antibody, V domains shown)
VH: QVQLVESGGGLVKPGGSLRLSCAASGFTFSDYYMSWIRQAPGKGLEWVSDISVSSSYTNYADSVKGRFTISRDNAKNSLYLQMNSLRAEDTAVYYCARLGGYRSFFSTDDGDSLDYWGQGTLVTVSS
VL: not shown
In the case of B2, the values for the half-maximal effective concentration (EC50) (in experiment [3]; with cynomolgus LRRC15 [4]) were 0.633 nM and 0.19 nM, respectively.

B3: L15-03 (antibody, V domains shown)
VH: QVQLVQSGAEVKKPGSSVKVSCKASGGTFSSYTISWVRQAPGQGLEWMGGIIPMFGTANYAQKFQGRVTITADESTSTAYMELSSLRSEDTAVYYCARGVALLATDFDYWGQGTLVTVSS
VL: QSALTQPASVSGSPGQSITISCTGTSSDVGGYNYVSWYQQHPGKAPKLMIYEVSNRPSGVSNRFSGSKSGNTASLTISGLQAEDEADYYCQSWTHDNSVVFGGGTKLTVL
For the molecule B3, the EC50 in experiment [3] is 0.285 nM; with cynomolgus LRRC15 [4], 0.165 nM.

B4: L15-07 (antibody, V domains shown)
VH: QVQLVQSGAEVKKPGSSVKVSCKASGGTFSTYAISWVRQAPGQGLEWMGGITPMFGTPNYAQKFQGRVTITADESTSTAYMELSSLRSEDTAVYYCARGDWYDYHFDYWGQGTLVTVSS
VL: QSALTQPASVSGSPGQSITISCTGTSSDVGGYNYVSWYQQHPGKAPKLMIYEVSNRPSGVSNRFSGSKSGNTASLTISGLQAEDEADYYCQSYANRDNFVVFGGGTKLTVL
For the molecule B4, the 50% effective concentration (EC50) in experiment [3] turned out to be 0.259 nM; with cynomolgus LRRC15 [4] it was 0.277 nM.

B5: 315-L06C08 (bispecific antibody)
chain: not shown
heavy: QVQLVESGGGLVKPGGSLRLSCAASGFTFSDYYMSWIRQAPGKGLEWVSDISVSSSYTNYADSVKGRFTISRDNAKNSLYLQMNSLRAEDTAVYYCARLGGYRSFFSTDDGDSLDYWGQGTLVTVSSASTKGPSVFPLAPSSKSTSGGTAALGCLVKDYFPEPVTVSWNSGALTSGVHTFPAVLQSSGLYSLSSVVTVPSSSLGTQTYICNVNHKPSNTKVDKRVEPKSCDKTHTCPPCPAPEFEGGPSVFLFPPKPKDTLMISRTPEVTCVVVDVSHEDPEVKFNWYVDGVEVHNAKTKPREEQYNSTYRVVSVLTVLHQDWLNGKEYKCKVSNKALPASIEKTISKAKGQPREPQVCTLPPSRDELTKNQVSLTCLVEGFYPSDIAVEWESNGQPENNYKTTPPVLDSDGSFFLYSDLTVDKSRWQQGNVFSCSVMHEALHNHYTQESLSLSPGK
light: not shown
Consider B5, for which the concentration giving a half-maximal response (EC50) came out at 0.627 nM with cynomolgus LRRC15 [1] and 0.488 nM in experiment [2].

B6: L15-06 (antibody, V domains shown)
VH: EVQLLESGGGLVQPGGSLRLSCAASGFTFSSYYMSWVRQAPGKGLEWVADISVSGSYTNYADSVKGRFTISRDNSKNTLYLQMNSLRAEDTAVYYCARIGSYRSFFSTDDGDSLDYWGQGTLVTVSS
VL: not shown
Turning to B6, the concentration giving a half-maximal response (EC50) in experiment [3] came to 0.376 nM; with cynomolgus LRRC15 [4], 0.239 nM.
